Key:
[1] = target: Slr1270 protein from Synechocystis 6803, refolded, C-terminal His tag (Synechocystis 6803); test: SDS-PAGE without boiling
[2] = target: Slr1270 protein from Synechocystis 6803, refolded, C-terminal His tag (Synechocystis 6803); test: native gel or EMSA
[3] = target: Slr1270 protein from Synechocystis 6803, refolded, C-terminal His tag (Synechocystis 6803); test: SEC

- stoichiometry N [1]: 3
- stoichiometry N [2]: 3
- stoichiometry N [3]: 3
Substance: Slr1270 protein from Synechocystis 6803, refolded, C-terminal His tag (natural protein)

— paper PMC4288923
